From US20030147883A1 (US Dept. of Health and Human Services, published 2003) come the findings set out here.

The assay addresses T1, chemokine receptor CCR5 (human, UniProt P51681 1-352).
T1 construct: whole, on cells
Briefly: ^125I-MIP-1β binding to human monocytes, displacement by unlabeled MIP-1β.

T1 sequence (P51681 whole entry): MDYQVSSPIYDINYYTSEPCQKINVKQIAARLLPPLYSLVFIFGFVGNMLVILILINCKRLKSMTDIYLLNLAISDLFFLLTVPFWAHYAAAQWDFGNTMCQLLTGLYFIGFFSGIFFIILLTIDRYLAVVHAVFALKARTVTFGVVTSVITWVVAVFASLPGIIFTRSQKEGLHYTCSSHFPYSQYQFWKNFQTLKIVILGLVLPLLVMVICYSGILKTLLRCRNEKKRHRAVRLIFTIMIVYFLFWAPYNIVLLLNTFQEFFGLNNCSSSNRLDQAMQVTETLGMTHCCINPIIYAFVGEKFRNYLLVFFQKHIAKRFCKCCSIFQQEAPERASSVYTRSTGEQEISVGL
Protocol: After incubation, the cells were washed with DPBS and centrifuged through a 10% sucrose/DPBS cushion. The tips of tubes containing cell pellets were cut and the cell-associated radioactivity was determined in a gamma counter. The results were presented as counts per minute (cpm) on 2×10⁶ monocyte and were representative of at least three experiments performed.

B1: MIP-1β (ligand, human, UniProt P13236 24-92, looked up)
chain: APMGSDPPTACCFSYTARKLPRNFVVDYYETSSLCSQPAVVFQTKRSKQVCADPSESWVQEYVYDLELN
notes: also called MIP-1beta
Consider B1, for which the binding result is recorded as “binds”.
